Values of other authors in PMC4322731.

Target: Cys12 (UniProt position 13, SVLFVCLGNIC)
Settings: not stated (discussed as the resting-state thiolate form of the free enzyme)

Substance: Bovine heart low molecular weight protein tyrosine phosphatase (BHPTP, LMW-PTP, class II PTP) (Bos taurus)
- pKa: less than 4
